Source: the supplement of paper PMC10724198
± gives the standard deviation of the averaged measurements.

Test system: Saccharomyces cerevisiae
Experiment: protein stability index of tFT-peptide fusion (C-terminal peptide) (PSI (0-1 scale)); higher = more stable (slower turnover)
Settings: genetic background: wild type; temperature: 30 C
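Also: PSI is a weighted mean of sequencing reads over stability bins, variants kept only with over 10 reads, mCherry proximal and sfGFP distal, peptide attached via GGGS linker.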

Sequence | protein stability index
KPYKTYKIIKRE | 0.6578 ± 0.0028
KQFKFPLRVIRA | 0.519 ± 0.024
KQKKAETQATQK | 0.678 ± 0.038
KQPGAGGGEVGG | 0.6555 ± 0.002
KQRGSKVIIKVD | 0.663 ± 0.011
KQRGSNYGCGYG | 0.615 ± 0.026
KQWGTHSSWLEV | 0.701 ± 0.076
KREEGKTKKKKQ | 0.666 ± 0.023
KREKAQEGQGGD | 0.709 ± 0.025
KRESNSKQTEKV | 0.7 ± 0.099
KRGNEEYSRGNN | 0.692 ± 0.012
KRGNGIEGRVGG | 0.685 ± 0.011
KRKKNISKTEKS | 0.724 ± 0.016
KRKKNTRENGED | 0.778 ± 0.022
KRKRSERRRGKP | 0.693 ± 0.015
KRMPDERAKAGP | 0.694 ± 0.0079
KRNCVVLLPMDR | 0.682 ± 0.23
KRNEQQKNDRKK | 0.653 ± 0.046
KRRIGKYEERME | 0.661 ± 0.022
KRRKREEKKSMT | 0.742 ± 0.097
KRRTGKEGRIRR | 0.723 ± 0.021
KSDSRISGTVVV | 0.652 ± 0.059
KSDTAWSHPYPS | 0.6793 ± 0.00097
KSEKQKSNRKEF | 0.686 ± 0.071
KSGEHSCCRSAD | 0.602 ± 0.038
KSKKQYTKKTRK | 0.709 ± 0.0078

Sequence | protein stability index
KSKLSSRTKLTH | 0.64 ± 0.03
KSKTENKEKATK | 0.716 ± 0.1
KSLNTAGVLTGR | 0.68 ± 0.034
KSPIPMRAPGNS | 0.633 ± 0.053
KSQKKKKKNKNF | 0.57 ± 0.044
KSSAGAGQCPLS | 0.712 ± 0.019
KSYKRICTKKSR | 0.782 ± 0.096
KTDSEPNKRIHK | 0.707 ± 0.09
KTEGQEKRVMSE | 0.734 ± 0.046
KTKDGKNNRRTN | 0.687 ± 0.009
KTKEETNENRNL | 0.719 ± 0.027
KTNWKKKERKKA | 0.675 ± 0.027
KTQNVNDQGEET | 0.644 ± 0.062
KTTERRQTKSRV | 0.688 ± 0.085
KTVPRMESRVRA | 0.718 ± 0.053
KVKREEKRKRED | 0.712 ± 0.033
KVLGRPVGMAYI | 0.666 ± 0.034
KVWGPAVPAVPP | 0.666 ± 0.065
KWNVFRKGRGNI | 0.793 ± 0.047
KYTSQRSPRIFR | 0.573 ± 0.2
KYVYFAPVLDVI | 0.659 ± 0.033
LAAGGSAGTRVV | 0.656 ± 0.026
LAAVCFYPFCCF | 0.641 ± 0.017
LACWAGGLGWGG | 0.772 ± 0.044
LAFPFSPLAPQI | 0.691 ± 0.077
LAGNNVSFMRVR | 0.714 ± 0.059

Sequence | protein stability index
LAGPYGRVTVFF | 0.67 ± 0.029
LAHACQRRQTEA | 0.786 ± 0.11
LALTIVKFGDLS | 0.789 ± 0.057
LAPASPTHPHPP | 0.679 ± 0.0087
LAPLYFSPFPFP | 0.689 ± 0.041
LAPPHLPPPLHK | 0.678 ± 0.053
LAPPPPVPPTHS | 0.721 ± 0.052
LARGPDETPAGA | 0.668 ± 0.18
LASPPIIVFSQM | 0.556 ± 0.016
LATGLVIETLWE | 0.753 ± 0.042
LAVGAAGVLFGG | 0.776 ± 0.03
LAVLRFHLRRHL | 0.668 ± 0.065
LAVSSAPLLSSF | 0.723 ± 0.071
LCACRMVGFRGG | 0.538 ± 0.045
LCCTLPSRGVIV | 0.5993 ± 0.0059
LCGGLSLPFAHV | 0.691 ± 0.097
LCLFPSSFRLPP | 0.6489 ± 0.0051
LCMGVRGRVGVF | 0.682 ± 0.088
LCPGYVDSRCRG | 0.6959 ± 0.0034
LCRVFAGFLSVG | 0.689 ± 0.036
LCSIESGPICIL | 0.676 ± 0.0097
LCSSASFFFSVL | 0.67 ± 0.059
LCSSSLRPFFPE | 0.754 ± 0.024
LCSTSLTPMRPT | 0.699 ± 0.021
LCTALLRSLTVG | 0.744 ± 0.13
LCWGGRCGSGPG | 0.72 ± 0.051

Sequence | protein stability index
LDLELNRRCRTS | 0.675 ± 0.06
LDLYRYLQDLGC | 0.731 ± 0.018
LDSWKQDLYTVC | 0.674 ± 0.033
LDTVVNGAIPIL | 0.699 ± 0.051
LDVQPVHPVDPE | 0.778 ± 0.013
LEAINRKGIWQE | 0.639 ± 0.083
LEFFPSSRFFGF | 0.773 ± 0.026
LEITKKKIGLKY | 0.716 ± 0.13
LETVPVPPPPSA | 0.747 ± 0.057
LETVWRFECGWG | 0.7759 ± 0.0048
LEWVRPCDLFPC | 0.7198 ± 0.005
LFDLVVDSYGHI | 0.753 ± 0.034
LFFFPPVPISSV | 0.601 ± 0.0008
LFFSIVSPPCGR | 0.748 ± 0.068
LFGLLSSPLCVD | 0.63 ± 0.042
LFLFPPVLTFPL | 0.625 ± 0.035
LFLRPSGLPTLL | 0.69 ± 0.083
LFLSAFFFRFFD | 0.629 ± 0.045
LFPAGSSLCGAI | 0.753 ± 0.061
LFPGVHRVEDRA | 0.675 ± 0.034
LFPRSVPIAINL | 0.6259 ± 0.0045
LFPSFRSLSFVI | 0.672 ± 0.035
LFPSPPPPRSSL | 0.7697 ± 0.005
LFQVRLVDLSRI | 0.674 ± 0.049
LFRLFFVKACRF | 0.516 ± 0.0025
LFRLRLFPHPHF | 0.645 ± 0.087

Sequence | protein stability index
LFRPGDLVYHSV | 0.727 ± 0.026
LFSLFLRSPLTS | 0.664 ± 0.035
LFSRDASSFRFF | 0.658 ± 0.032
LFVFSVCSWPRV | 0.579 ± 0.04
LFVSCGGCLAMF | 0.687 ± 0.0077
LFWARLSLVSLS | 0.495 ± 0.041
LFYHLFWLFCSC | 0.634 ± 0.046
LFYRTLPLPWPA | 0.742 ± 0.02
LGAGLIGCALVE | 0.645 ± 0.036
LGAIGFVVVGGL | 0.622 ± 0.029
LGALTPSIAGGP | 0.64 ± 0.01
LGCGDSRSMVSL | 0.6875 ± 0.0033
LGEAGGWSLGFG | 0.73 ± 0.018
LGFDRGGGGAGM | 0.675 ± 0.062
LGFFGGGRGAGG | 0.677 ± 0.016
LGFLRRERLVPS | 0.697 ± 0.057
LGFSCHGRPPCS | 0.699 ± 0.085
LGFVADLFVWSV | 0.673 ± 0.069
LGFVRLLFPSFS | 0.758 ± 0.022
LGFYGSYGRWWV | 0.779 ± 0.085
LGGCGWVDWWGL | 0.732 ± 0.0096
LGGGGGGGACGE | 0.655 ± 0.022
LGGTGGFRGVRG | 0.691 ± 0.022
LGHITLSERFGS | 0.705 ± 0.21
LGKWWDEECGEI | 0.7834 ± 0.0042
LGLGERLSINTF | 0.70035 ± 0.00022

Sequence | protein stability index
LGLSFYPPLIIS | 0.559 ± 0.0094
LGMCGTCQREVG | 0.708 ± 0.027
LGNFSLSARSYM | 0.727 ± 0.028
LGNMRTVEGWGG | 0.684 ± 0.051
LGPDSCRLPLAQ | 0.746 ± 0.067
LGRKWDCLGRYV | 0.637 ± 0.06
LGRPWRECIQIG | 0.66 ± 0.015
LGRTFEEEKYAY | 0.767 ± 0.13
LGSAAVPGLCRL | 0.853 ± 0.0092
LGSCPPPPAPPP | 0.638 ± 0.037
LGSCRCFAFVSL | 0.659 ± 0.023
LGSFGLASVDGL | 0.713 ± 0.02
LGSITDRLLRRR | 0.772 ± 0.14
LGSTPAVKPPCL | 0.688 ± 0.019
LGSYSALKIGWG | 0.592 ± 0.029
LGTLLWGGAGRG | 0.713 ± 0.01
LGVALARCLWGT | 0.677 ± 0.022
LGVGFFLGFRTG | 0.6508 ± 0.0048
LGVGGPSVREGE | 0.706 ± 0.034
LGVGGRWGGPGA | 0.691 ± 0.059
LGVRGSMGPGGG | 0.683 ± 0.082
LGVWVGGRGVRG | 0.747 ± 0.037
LGWPWGGRGEGL | 0.606 ± 0.0069
LGWRLFNDVRRG | 0.707 ± 0.013
LGYRCETNYVPD | 0.631 ± 0.023
LHETKRQKKRKR | 0.7187 ± 0.0062

Sequence | protein stability index
LHLPFLPSLPHP | 0.727 ± 0.042
LHPPAPRSPPPR | 0.639 ± 0.041
LHPPLPRPPYPP | 0.66 ± 0.029
LHPRPPLLPSLP | 0.608 ± 0.07
LHRFTYAEVVWA | 0.536 ± 0.031
LHSFLLSVGRGF | 0.681 ± 0.015
LIGRPLPRTFMH | 0.766 ± 0.074
LIKATAYRTNRQ | 0.745 ± 0.044
LIKVGRRREGTG | 0.691 ± 0.059
LILFLTTSSPLV | 0.608 ± 0.017
LILSSGSPAFKT | 0.66 ± 0.039
LIPTPPPHPPSP | 0.679 ± 0.023
LISGGLSWGDCW | 0.743 ± 0.0099
LISNTGTKWAMI | 0.674 ± 0.053
LISSTLRDQKDE | 0.701 ± 0.047
LISVWQLDVRSG | 0.579 ± 0.0023
LKALNKFEDTGN | 0.668 ± 0.018
LKAWQRRWEGVR | 0.752 ± 0.026
LKCGGVRCGSAN | 0.648 ± 0.061
LKDEERYKRRKV | 0.709 ± 0.016
LKFCSTLLKFAS | 0.564 ± 0.037
LKLLIPPSFSLI | 0.611 ± 0.027
LKMGAWAHTETW | 0.645 ± 0.033
LKQNRIKCPWTL | 0.728 ± 0.017
LKTNECIPVTEK | 0.609 ± 0.029
LLAHLVIWAPSR | 0.634 ± 0.091

Sequence | protein stability index
LLANYQRPSPLN | 0.705 ± 0.063
LLAPPLPAVPSF | 0.731 ± 0.006
LLFGMRPMLFSF | 0.576 ± 0.038
LLFLVHGLCFSS | 0.543 ± 0.028
LLFPALPPPPVR | 0.674 ± 0.028
LLFPCSVGLGVV | 0.686 ± 0.077
LLFRPTPCLPPL | 0.686 ± 0.022
LLFRSPPPTVHS | 0.769 ± 0.088
LLFSNRKVGQQF | 0.708 ± 0.011
LLGRPILINRPL | 0.661 ± 0.0083
LLGSGTVSGCAG | 0.642 ± 0.04
LLHYPHVPLSPI | 0.662 ± 0.021
LLICRLFLFTIW | 0.555 ± 0.12
LLIPPLPSLAPP | 0.759 ± 0.052
LLLFPLPLLPFH | 0.686 ± 0.037
LLLGLPLDVGDS | 0.708 ± 0.066
LLLRSSPVSLSR | 0.7162 ± 0.0034
LLLTLVFSFLSC | 0.531 ± 0.0088
LLPLLPAPRPPF | 0.691 ± 0.0063
LLPPCYFFLTSP | 0.637 ± 0.093
